# B1: M-phase phosphoprotein 8 (Homo sapiens), Q99549 (parent)
# chain: MEQVAEGARVTAVPVSAADSTEELAEVEEGVGVVGEDNDAAARGAEAFGDSEEDGEDVFEVEKILDMKTEGGKVLYKVRWKGYTSDDDTWEPEIHLEDCKEVLLEFRKKIAENKAKAVRKDIQRLSLNNDIFEANSDSDQQSETKEDTSPKKKKKKLRQREEKSPDDLKKKKAKAGKLKDKSKPDLESSLESLVFDLRTKKRISEAKEELKESKKPKKDEVKETKELKKVKKGEIRDLKTKTREDPKENRKTKKEKFVESQVESESSVLNDSPFPEDDSEGLHSDSREEKQNTKSARERAGQDMGLEHGFEKPLDSAMSAEEDTDVRGRRKKKTPRKAEDTRENRKLENKNAFLEKKTVPKKQRNQDRSKSAAELEKLMPVSAQTPKGRRLSGEERGLWSTDSAEEDKETKRNESKEKYQKRHDSDKEEKGRKEPKGLKTLKEIRNAFDLFKLTPEEKNDVSENNRKREEIPLDFKTIDDHKTKENKQSLKERRNTRDETDTWAYIAAEGDQEVLDSVCQADENSDGRQQILSLGMDLQLEWMKLEDFQKHLDGKDENFAATDAIPSNVLRDAVKNGDYITVKVALNSNEEYNLDQEDSSGMTLVMLAAAGGQDDLLRLLITKGAKVNGRQKNGTTALIHAAEKNFLTTVAILLEAGAFVNVQQSNGETALMKACKRGNSDIVRLVIECGADCNILSKHQNSALHFAKQSNNVLVYDLLKNHLETLSRVAEETIKDYFEARLALLEPVFPIACHRLCEGPDFSTDFNYKPPQNIPEGSGILLFIFHANFLGKEVIARLCGPCSVQAVVLNDKFQLPVFLDSHFVYSFSPVAGPNKLFIRLTEAPSAKVKLLIGAYRVQLQ
# Variants of: B1
# Conditions: with h31_human H3C1, P68431
row,effect of a mutation on the interaction,Variant
1,disrupting interaction,W80A

# Source: IntAct's records for PubMed 20871592
